B1: CPEB3 Ribozyme (parent)
chain: GGGGGCCACAGCAGAAGCGUUCACGUCGCGGCCCCUGUCAGAUUCUGGUGAAUCUGCGAAUUCUGCUGU

Variants of: B1
Assay: self-cleavage, relative activity (ratio to wild type); higher = more cleavage; co-transcriptional

Row | Variant | self-cleavage
1 | GGGGGCCACAGCAGAAGCGUUCACGUCGCGGCCCCUGUCAGAUUGUGGUGAAUCUGCGAAUUCCGCUGU | 0.836
2 | GGGGGCCACAGCAGAAGCGUUCACGUCGCGGCCCCUGUCAGAUUGUGGUGAAUCUGCGAAUUCGGCUGU | 0.739
3 | GGGGGCCACAGCAGAAGCGUUCACGUCGCGGCCCCUGUCAGAUUAGGGUGAAUCUGCGAAUUCUGCUGU | 0.917
4 | GGGGGCCACAGCAGAAGCGUUCACGUCGCGGCCCCUGUCAGAUUAAGGUGAAUCUGCGAAUUCUGCUGU | 1.01
5 | GGGGGCCACAGCAGAAGCGUUCACGUCGCGGCCCCUGUCAGAUUACGGUGAAUCUGCGAAUUCUGCUGU | 1
6 | GGGGGCCACAGCAGAAGCGUUCACGUCGCGGCCCCUGUCAGAUUGUGAUGAAUCUGCGAAUUCUGCUGU | 1.01
7 | GGGGGCCACAGCAGAAGCGUUCACGUCGCGGCCCCUGUCAGAUUGUGUUGAAUCUGCGAAUUCUGCUGU | 1.02
8 | GGGGGCCACAGCAGAAGCGUUCACGUCGCGGCCCCUGUCAGAUUGUGCUGAAUCUGCGAAUUCUGCUGU | 1.01
9 | GGGGGCCACAGCAGAAGCGUUCACGUCGCGGCCCCUGUCAGAUUGUAGUGAAUCUGCGAAUUCUGCUGU | 1.03
10 | GGGGGCCACAGCAGAAGCGUUCACGUCGCGGCCCCUGUCAGAUUGUGGUGAAUCUGCGAAUUUUGCUGU | 0.964
11 | GGGGGCCACAGCAGAAGCGUUCACGUCGCGGCCCCUGUCAGAUUGUGGUGUAUCUGCGAAUUCUGCUGU | 1.03
12 | GGGGGCCACAGCAGAAGCGUUCACGUCGCGGCCCCUGUCAGAUUGUGGUGCAUCUGCGAAUUCUGCUGU | 1.01
13 | GGGGGCCACAGCAGAAGCGUUCACGUCGCGGCCCCUGUCAGAUUGUGGUGGAUCUGCGAAUUCUGCUGU | 1.02
14 | GGGGGCCACAGCAGAAGCGUUCACGUCGCGGCCCCUGUCAGAUUAUGGUGAAUCUGCGAAGUCUGCUGU | 0.6
15 | GGGGGCCACAGCAGAAGCGUUCACGUCGCGGCCCCUGUCAGAUUAUGGUGAAUCUGCGAAAUCUGCUGU | 0.86
16 | GGGGGCCACAGCAGAAGCGUUCACGUCGCGGCCCCUGUCAGAUUGCGGUGAAUCUGCGAAUUCUGCUGU | 0.999
17 | GGGGGCCACAGCAGAAGCGUUCACGUCGCGGCCCCUGUCAGAUUGGGGUGAAUCUGCGAAUUCUGCUGU | 0.966
18 | GGGGGCCACAGCAGAAGCGUUCACGUCGCGGCCCCUGUCAGAUUGAGGUGAAUCUGCGAAUUCUGCUGU | 0.631
19 | GGGGGCCACAGCAGAAGCGUUCACGUCGCGGCCCCUGUCAGAUUGUGGUGAAUCUGCGAAUUCUGCCGU | 0.917
20 | GGGGGCCACAGCAGAAGCGUUCACGUCGCGGCCCCUGUCAGAUUGUGGUGAAUCUGCGAAUUCUGCAGU | 0.962

Row | Variant | self-cleavage
21 | GGGGGCCACAGCAGAAGCGUUCACGUCGCGGCCCCUGUCAGAUUAUGGUGAAUCUGCGAAUACUGCUGU | 0.846
22 | GGGGGCCACAGCAGAAGCGUUCACGUCGCGGCCCCUGUCAGAUUAUGGUGAAUCUGCGAAUGCUGCUGU | 0.832
23 | GGGGGCCACAGCAGAAGCGUUCACGUCGCGGCCCCUGUCAGAUUAUGGUGAAUCUGCGAAUCCUGCUGU | 0.85
24 | GGGGGCCACAGCAGAAGCGUUCACGUCGCGGCCCCUGUCAGAUUGUGGUGAAUCUGCGAAUUCUACUGU | 0.87
25 | GGGGGCCACAGCAGAAGCGUUCACGUCGCGGCCCCUGUCAGAUUGUGGUGAAUCUGCGAAUUCUUCUGU | 0.832
26 | GGGGGCCACAGCAGAAGCGUUCACGUCGCGGCCCCUGUCAGAUUGUGGUGAAUCUGCGAAUGCUGCUGU | 0.81
27 | GGGGGCCACAGCAGAAGCGUUCACGUCGCGGCCCCUGUCAGAUUGUGGUGAAUCUGCGAAUCCUGCUGU | 0.798
28 | GGGGGCCACAGCAGAAGCGUUCACGUCGCGGCCCCUGUCAGAUUGUGGUGAAUCUGCGAAUUCUGCUGA | 1.01
29 | GGGGGCCACAGCAGAAGCGUUCACGUCGCGGCCCCUGUCAGAUUGUGGUGAAUCUGCGAAUUCUGCUGC | 1.05
30 | GGGGGCCACAGCAGAAGCGUUCACGUCGCGGCCCCUGUCAGAUUGUGGUGAAUUUGCGAAUUCUGCUGU | 0.952
31 | GGGGGCCACAGCAGAAGCGUUCACGUCGCGGCCCCUGUCAGAUUGUGGUGAAUGUGCGAAUUCUGCUGU | 0.688
32 | GGGGGCCACAGCAGAAGCGUUCACGUCGCGGCCCCUGUCAGAUUGUGGUGAAUCUGCGGAUUCUGCUGU | 0.969
33 | GGGGGCCACAGCAGAAGCGUUCACGUCGCGGCCCCUGUCAGAUUGUGGUGAAUCUGCGCAUUCUGCUGU | 0.638
34 | GGGGGCCACAGCAGAAGCGUUCACGUCGCGGCCCCUGUCAGAUUGUGGUGAAUCUGCGUAUUCUGCUGU | 0.815
35 | GGGGGCCACAGCAGAAGCGUUCACGUCGCGGCCCCUGUCAGAUUAUGGUGAAACUGCGAAUUCUGCUGU | 0.87
36 | GGGGGCCACAGCAGAAGCGUUCACGUCGCGGCCCCUGUCAGAUUGUGGUGAAUCUGCAAAUUCUGCUGU | 0.919
37 | GGGGGCCACAGCAGAAGCGUUCACGUCGCGGCCCCUGUCAGAUUGUGGUGAAUCUGCUAAUUCUGCUGU | 1.01
38 | GGGGGCCACAGCAGAAGCGUUCACGUCGCGGCCCCUGUCAGAUUGUGGUGAAUCUGCCAAUUCUGCUGU | 0.946
39 | GGGGGCCACAGCAGAAGCGUUCACGUCGCGGCCCCUGUCAGAUUGUGGUGAAUCUGAGAAUUCUGCUGU | 0.318
